Experimental data published in PMC9585074.

Target: human myc-tagged essential myosin light chain (ELC) (human) (UniProt P08590)
Assay: co-IP; human myc-tagged ELC overexpressed in HEK293 cells, Myc-Trap magnetic beads, 1 mg lysate over night at 4 °C, immunoblot for endogenous kinases; basal or ionophore (ionomycin 1-5 µM, 4 mM CaCl2, 10 min) stimulation

UniProt P08590, sequence (P08590 whole entry): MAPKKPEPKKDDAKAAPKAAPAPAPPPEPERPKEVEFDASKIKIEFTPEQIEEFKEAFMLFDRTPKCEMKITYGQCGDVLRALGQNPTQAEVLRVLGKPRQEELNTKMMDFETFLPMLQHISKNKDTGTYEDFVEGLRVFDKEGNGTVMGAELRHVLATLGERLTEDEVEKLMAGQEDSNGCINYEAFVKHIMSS

averaged intensity of precipitated NEK9 normalized to actin of input, before doubling the ionophore concentration: 0.35 | averaged intensity of precipitated NEK9 normalized to actin of input, doubled ionophore concentration: 1.01
B1: NIMA-related kinase 9 (NEK9), human, endogenous in HEK293 cells (enzyme)
chain: MSVLGEYERHCDSINSDFGSESGGCGDSSPGPSASQGPRAGGGAAEQEELHYIPIRVLGRGAFGEATLYRRTEDDSLVVWKEVDLTRLSEKERRDALNEIVILALLQHDNIIAYYNHFMDNTTLLIELEYCNGGNLYDKILRQKDKLFEEEMVVWYLFQIVSAVSCIHKAGILHRDIKTLNIFLTKANLIKLGDYGLAKKLNSEYSMAETLVGTPYYMSPELCQGVKYNFKSDIWAVGCVIFELLTLKRTFDATNPLNLCVKIVQGIRAMEVDSSQYSLELIQMVHSCLDQDPEQRPTADELLDRPLLRKRRREMEEKVTLLNAPTKRPRSSTVTEAPIAVVTSRTSEVYVWGGGKSTPQKLDVIKSGCSARQVCAGNTHFAVVTVEKELYTWVNMQGGTKLHGQLGHGDKASYRQPKHVEKLQGKAIRQVSCGDDFTVCVTDEGQLYAFGSDYYGCMGVDKVAGPEVLEPMQLNFFLSNPVEQVSCGDNHVVVLTRNKEVYSWGCGEYGRLGLDSEEDYYTPQKVDVPKALIIVAVQCGCDGTFLLTQSGKVLACGLNEFNKLGLNQCMSGIINHEAYHEVPYTTSFTLAKQLSFYKIRTIAPGKTHTAAIDERGRLLTFGCNKCGQLGVGNYKKRLGINLLGGPLGGKQVIRVSCGDEFTIAATDDNHIFAWGNGGNGRLAMTPTERPHGSDICTSWPRPIFGSLHHVPDLSCRGWHTILIVEKVLNSKTIRSNSSGLSIGTVFQSSSPGGGGGGGGGEEEDSQQESETPDPSGGFRGTMEADRGMEGLISPTEAMGNSNGASSSCPGWLRKELENAEFIPMPDSPSPLSAAFSESEKDTLPYEELQGLKVASEAPLEHKPQVEASSPRLNPAVTCAGKGTPLTPPACACSSLQVEVERLQGLVLKCLAEQQKLQQENLQIFTQLQKLNKKLEGGQQVGMHSKGTQTAKEEMEMDPKPDLDSDSWCLLGTDSCRPSL
